Experiment [1] addresses T1, hOX40-His (human, UniProt P43489 29-216, limits assumed).
T1 construct: also called human OX40
T1 sequence (looked up): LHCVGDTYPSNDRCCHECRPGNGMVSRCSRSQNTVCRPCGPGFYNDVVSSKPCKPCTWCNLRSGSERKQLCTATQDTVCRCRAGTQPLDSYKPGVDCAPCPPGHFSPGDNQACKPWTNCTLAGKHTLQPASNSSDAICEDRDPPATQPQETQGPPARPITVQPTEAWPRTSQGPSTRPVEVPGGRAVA
Kind of experiment: SPR (BioRad ProteOn XPR 360) per Example 5; FIG. 5 legend says biolayer interferometry (Octet); hOX40-His as ligand, analyte at 222.2 nM. A general note: Biolayer interferometry detects binding as a change in optical thickness at a sensor tip.

Experiment [2] addresses T1, hOX40-His. Nature of the experiment: SPR/Octet kinetics on hOX40-His, against the control Fc-OX40L.
Experiment [3] addresses T2, human OX40 expressed on cells (Jurkat/hOX40) (human, UniProt P43489 29-277).
T2 construct: whole, on cells; also called Jurkat cells engineered to overexpress human OX40; OX40 present on the cell surface
T2 sequence (looked up): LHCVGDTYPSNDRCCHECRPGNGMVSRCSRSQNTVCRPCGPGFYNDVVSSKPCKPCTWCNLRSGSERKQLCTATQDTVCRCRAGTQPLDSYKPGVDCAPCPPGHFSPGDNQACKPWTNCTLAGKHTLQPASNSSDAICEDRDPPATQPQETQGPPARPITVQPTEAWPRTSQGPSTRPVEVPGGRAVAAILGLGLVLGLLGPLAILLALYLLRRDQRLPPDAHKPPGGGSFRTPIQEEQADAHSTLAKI
Nature of the experiment: flow cytometry on Jurkat/hOX40 cells. The protocol:
For cell binding assays, immortalized cell lines were engineered to stably express human OX40 (Jurkat/hOX40). Increasing concentrations of the VSIG8-Fc-OX40L chimeric protein were incubated with the over-expressing (Jurkat/hOX40) cell line for two hours. Cells were collected, washed, and stained with antibodies for the detection of chimeric protein binding by flow cytometry.

Experiment [4] deals with T1, hOX40-His. Nature of the experiment: SPR (BioRad ProteOn XPR 360) per Example 5; FIG. 5 legend says biolayer interferometry (Octet); hOX40-His as ligand, analyte at 117.6 nM.
For a further experiment, the target named is T3, human IgG (plate-bound).
T3 construct: Capture reagent as printed; It may in fact be an anti-human IgG antibody; also called hIgG
Kind of experiment: ELISA, left panel; sheet header 'IgG ELISA, H&L Capture, Fc-HRP Detect'; paragraph 219: capture on plate-bound human IgG, detection with HRP-conjugated anti-human IgG antibody. The text has this: Specifically, the Fc portion of the chimeric protein was detected by capturing to a plate-bound human IgG and detecting via an HRP-conjugated anti-human IgG antibody (left panel of FIG. 3). The OX40 domain of the chimeric protein was detected by capturing to a plate-bound recombinant human OX40 protein and detecting via an anti-OX40-specific antibody (right panel of FIG. 3). It was observed that in ELISA assays, using the central Fc region to detect chimeric proteins tended to underestimate the actual protein content in a sample. Therefore, low level of the hVSIG8-Fc-OX40L chimeric protein was detected compared to standard in this assay.
On the technique in general: ELISA stands for enzyme-linked immunosorbent assay.

Experiment [5] has as its target T4, recombinant murine OX40-His (murine, UniProt P47741 20-211, limits assumed).
T4 construct: Coated on penta-his biosensors; also called mOX40
T4 sequence (looked up): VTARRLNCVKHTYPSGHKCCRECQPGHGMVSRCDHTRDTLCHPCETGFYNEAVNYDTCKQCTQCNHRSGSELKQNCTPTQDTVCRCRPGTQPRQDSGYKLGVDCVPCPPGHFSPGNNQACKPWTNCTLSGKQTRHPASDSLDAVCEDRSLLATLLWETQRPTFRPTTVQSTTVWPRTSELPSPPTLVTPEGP
Nature of the experiment: biolayer interferometry, 'Octet Binding Affinities, Ligand: mouse OX40-His'; penta-His biosensors; Example 11 calls it SPR.

Data on three molecules can be found in US20200071378A1 (SHATTUCK LABS, published 2020).

Usually Kd stands for a measure of binding affinity in units of concentration. A high value points to weaker binding. Usually koff stands for a measure of how fast the partners let go of each other. A low value points to slow dissociation. What is called kon is the second-order rate constant of association. A high value points to faster complex formation. For orientation: EC50 means the concentration needed to bring the measured effect to its halfway point. High values mean weaker potency, low ones greater potency. In general, EC50 (read off the curve) refers to the concentration giving half of the maximal effect. Higher therefore signals a less potent agent.

B1: commercially-available single-sided human Fc-OX40L (Fc fusion, UniProt P23510 51-183, looked up)
chain: QVSHRYPRIQSIKVQFTEYKKEKGFILTSQKEDEIMKVQNNSVIINCDGFYLISLKGYFSQEVNISLHYQKDEEPLFQLKKVRSVNSLMVASLTYKDKVYLNVTTDNTSLDDFHVNGGELILIHQNPGEFCVL
notes: Bought control; also called hFc-OX40L; recombinant control protein; not shown: Fc part of a bought control protein, not described
In the experiment with hOX40-His [1], B1 gave a Kd of 61 nM, a koff of 0.00254 s⁻¹ and a kon of 41700 M⁻¹ s⁻¹.

B2: human VSIG8-Fc-OX40L chimeric protein (Fc fusion)
chain: VRINGDGQEVLYLAEGDNVRLGCPYVLDPEDYGPNGLDIEWMQVNSDPAHHRENVFLSYQDKRINHGSLPHLQQRVRFAASDPSQYDASINLMNLQVSDTATYECRVKKTTMATRKVIVTVQARPAVPMCWTEGHMTYGNDVVLKCYASGGSQPLSYKWAKISGHHYPYRAGSYTSQHSYHSELSYQESFHSSINQGLNNGDLVLKDISRADDGLYQCTVANNVGYSVCVVEVKVSDSRRIGCPPCPAPEFLGGPSVFLFPPKPKDQLMISRTPEVTCVVVDVSQEDPEVQFNWYVDGVEVHNAKTKPREEQFNSTYRVVSVLTVLHQDWLSGKEYKCKVSSKGLPSSIEKTISNATGQPREPQVYTLPPSQEEMTKNQVSLTCLVKGFYPSDIAVEWESNGQPENNYKTTPPVLDSDGSFFLYSRLTVDKSRWQEGNVFSCSVLHEALHNHYTQKSLSLSLGKIEGRMDQVSHRYPRIQSIKVQFTEYKKEKGFILTSQKEDEIMKVQNNSVIINCDGFYLISLKGYFSQEVNISLHYQKDEEPLFQLKKVRSVNSLMVASLTYKDKVYLNVTTDNTSLDDFHVNGGELILIHQNPGEFCVL
notes: also called hVSIG8-Fc-OX40L
With B2, in the experiment with hOX40-His [2], the “fold slower off-rate than the Fc-OX40L protein” value amounted to 10 fold. For the same molecule, the EC50 in experiment [3] was about 30 nM. In the experiment with hOX40-His [4], this molecule gave a Kd of 0.767 nM, a koff of 0.000254 s⁻¹ and a kon of 331000 M⁻¹ s⁻¹. For the same molecule, the “EC50 (read off the curve)” value with human IgG (plate-bound) is about 6 nM.

B3: commercially-available mFc-OX40L (Fc fusion, murine, UniProt P43488 51-198, looked up)
chain: SSSPAKDPPIQRLRGAVTRCEDGQLFISSYKNEYQTMEVQNNSVVIKCDGLYIIYLKGSFFQEVKIDLHFREDHNPISIPMLNDGRRIVFTVVASLAFKDKVYLTVNAPDTLCEHLQINDGELIVVQLTPGYCAPEGSYHSTVNQVPL
notes: Bought control; Construct is not described; also called commercially-available recombinant control protein; not shown: Fc part of a bought control protein, not described
Turning to B3, the binding result in experiment [5] is recorded as “binds”.
